Measurements as given in US20140056903A1 (Regeneron, published 2014).

Key:
[1] = molecular target: T1, human GFRα3 on HEK293/hGFRα3/hRET/SRE-luc cells (human, UniProt O60609 32-382); assay: cell-based or functional assay
T1 sequence: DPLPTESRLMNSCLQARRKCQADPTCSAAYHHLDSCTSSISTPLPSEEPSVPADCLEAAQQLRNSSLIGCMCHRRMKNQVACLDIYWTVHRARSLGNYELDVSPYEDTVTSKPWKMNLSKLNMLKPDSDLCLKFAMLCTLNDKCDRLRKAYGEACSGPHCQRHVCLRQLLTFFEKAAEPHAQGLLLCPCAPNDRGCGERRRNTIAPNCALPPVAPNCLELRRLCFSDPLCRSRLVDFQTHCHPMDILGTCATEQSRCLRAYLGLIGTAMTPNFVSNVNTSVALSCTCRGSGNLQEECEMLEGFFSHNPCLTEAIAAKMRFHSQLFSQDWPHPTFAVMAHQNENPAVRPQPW

[2] = molecular target: T2, monkey GFRα3 expressed with a C-terminal myc-myc-hexahistidine tag (monkey (Mf), UniProt O60609 32-374 (human entry), limits assumed); assay: SPR, Ab captured, 37C
T2 construct: also called MfGFRα3-mmh; MfGFRα3-mmH
T2 chain: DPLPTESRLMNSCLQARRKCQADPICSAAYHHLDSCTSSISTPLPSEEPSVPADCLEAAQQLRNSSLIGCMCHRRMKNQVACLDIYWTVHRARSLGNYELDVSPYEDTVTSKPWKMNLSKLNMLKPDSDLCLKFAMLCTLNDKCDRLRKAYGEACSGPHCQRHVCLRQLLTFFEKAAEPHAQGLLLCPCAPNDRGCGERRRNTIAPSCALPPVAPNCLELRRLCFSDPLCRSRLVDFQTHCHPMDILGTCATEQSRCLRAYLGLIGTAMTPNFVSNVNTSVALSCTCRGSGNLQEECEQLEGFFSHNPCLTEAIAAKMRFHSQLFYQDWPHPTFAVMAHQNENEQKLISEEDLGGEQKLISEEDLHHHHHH
Method in brief: (§1)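 Antibodies captured on anti-mouse or anti-human IgG CM5 surfaces, in HBS-EP or PBS-P20 at pH 7.4. mmh-tagged GFRα3 injected at 200–7.4 nM and Fc-tagged at 100–3.7 nM, with association up to 4 min and dissociation up to 20 min. Data fitted 1:1; KD=kd/ka, t1/2=ln2/(60*kd).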

[3] = molecular target: T2, monkey GFRα3 expressed with a …; assay: SPR, Ab captured, 25C
Method in brief: as §1

[4] = molecular target: T3, human GFRα3 expressed with a C-terminal myc-myc-hexahistidine tag (human, UniProt O60609 32-374, biotinylated (sites not given) in ELISA format 2 and in the Octet cross-competition; not in SPR); assay: Octet cross-competition; biotin-hGFRα3-mmH pre-saturated with first antibody H4H2212N
T3 construct: also called hGFRα3-mmh; hGFRα3-mmH
T3 sequence (O60609 other isoform, or with tags, fused parts or gaps limits assumed): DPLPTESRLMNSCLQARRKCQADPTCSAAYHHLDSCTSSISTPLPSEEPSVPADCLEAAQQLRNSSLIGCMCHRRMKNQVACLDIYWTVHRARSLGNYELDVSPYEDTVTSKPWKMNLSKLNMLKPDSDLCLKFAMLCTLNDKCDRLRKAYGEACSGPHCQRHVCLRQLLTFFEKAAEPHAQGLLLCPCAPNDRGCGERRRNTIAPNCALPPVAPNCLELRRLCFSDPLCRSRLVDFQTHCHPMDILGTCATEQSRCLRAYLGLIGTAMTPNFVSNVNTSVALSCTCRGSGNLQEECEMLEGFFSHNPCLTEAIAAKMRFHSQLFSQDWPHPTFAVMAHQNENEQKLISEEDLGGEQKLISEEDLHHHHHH
Protocol: (§2) A cross-competition assay was conducted to assess the ability of select antibodies to compete with one another for binding to human GFRα3 using an Octet RED384 biosensor (Fortebio Inc.). The entire experiment was performed at 25° C. with the flow rate of 1000 rpm in Octet HBST buffer (0.01 M HEPES pH7.4, 0.15M NaCl, 3 mM EDTA, 0.05% v/v Surfactant P20, 0.1 mg/mL BSA). To assess whether 2 antibodies were able to compete with one another for binding to their respective epitopes on biotinylated recombinant human GFRα3 expressed with a C-terminal myc-myc-hexahistidine tag (biotin-hGFRα3-mmH; SEQ ID:370), around ˜1.2 nm of biotin-hGFRα3-mmH was first captured onto streptavidin-coated Octet sensor tips (Fortebio Inc, #18-5019) by submerging the tips for 1 minute into a 10 μg/mL solution of biotin-hGFRα3-mmH. The antigen coated sensor tips were then placed into wells containing 25 μg/mL solution of a first anti-GFRα3 monoclonal antibody for 4 minutes to saturate the biotin-hGFRα3-mmH surface. The sensor tips were then subsequently dipped into wells containing 25 μ/mL solution of a second anti-GFRα3 monoclonal antibody. The sensor tips were washed in Octet HBST buffer in between every step of the experiment. The real-time binding response was monitored during the course of the experiment and the binding response at the end of every step was recorded as shown in FIG. 9. The response of mAb-2 binding to biotin-hGFRα3-mmH pre-complexed with the first antibody was compared and competitive/non-competitive behavior of different anti-GFRα3 monoclonal antibodies was determined.

[5] = molecular target: T3, human GFRα3 expressed with a C-terminal …; assay: Octet cross-competition; biotin-hGFRα3-mmH pre-saturated with first antibody H4H2294S
Protocol: as §2

B1: H4H2352S (antibody, human IgG4, V domains shown)
VH: EVQLVQSGAEVKKPGASVKVSCKASGYTFTNYGITWVRQAPGQGLEWMGWISAYNGNTGYAQKFQGRVTMTTDTSTSTAYMELRSLRSDDTAVYYCAREDYDFWRAFDIWGQGTMVTVSS
VL: EIVLTQSPGTLSLSPGERATLSCRASQSVSSTYLAWLQQKPGQAPRLLIYGASSRATGIPDRFSGSGSGTDFTLTINRLEPEDFAVYYCQQYAYSPYTFGQGTKLEIK
notes: human IgG4 Fc (H4H); also called H4H2352S-1
[1]
  IC50 (SRE-luc, HEK293/hGFRα3/hRET cells, 100 pM hARTEMIN-mmH): 0.92 nM
[2]
  Kd: 0.117 nM
  koff: 6.53e-05 s⁻¹
  kon: 557000 M⁻¹ s⁻¹
  t1/2: 2.95 h
[3]
  Kd: ≤ 0.0029 nM
  koff: ≤ 1e-06 s⁻¹
  kon: 345000 M⁻¹ s⁻¹
  t1/2: 192 h
[4]
  binding response of second antibody (nm): 0.08 nm
[5]
  binding response of second antibody (nm): 1.99 nm

B2: H4H2292S (antibody, human IgG4, V domains shown)
VH: EVQLVESGGGVVQPGRSLRLSCAASGFTFSSYGMHWVRQAPGKGLEWVSFIWYDGSNKYYADSVKGRFTISRDNSKNTLYLQMNSLTAEDTAVYYCARRGILTGTTAFDIWGQGTMVTVSS
VL: DIQMTQSPSSLSASVGDRVTITCRASQSISSYLNWYQQKPGKAPKLLIYAASSLQSGVPSRFSGSGSGTDFTLTIRSLIPEDFATYYCQQTYNTPFTFGPGTKVEIK
notes: human IgG4 Fc (H4H)
[1]
  IC50 (SRE-luc, HEK293/hGFRα3/hRET cells, 100 pM hARTEMIN-mmH): 4.6 nM
[2]
  Kd: 2.18 nM
  koff: 0.000195 s⁻¹
  kon: 89500 M⁻¹ s⁻¹
  t1/2: 0.983 h
[3]
  Kd: 1.57 nM
  koff: 0.000122 s⁻¹
  kon: 77600 M⁻¹ s⁻¹
  t1/2: 1.58 h
[4]
  binding response of second antibody (nm): 1.76 nm
[5]
  binding response of second antibody (nm): 1.92 nm

B3: H4H2357S (antibody, human IgG4, V domains shown)
VH: EVQLVESGGGLVQPGGSLRLSCAASTFTFSSYAMTWVRQAPGKGLEWVSSISGSGDSTYYADSVKGRFTISRDNSKNTLFLQMNSLRAEDTAVYYCAKKDGPGRYYVRYGMDVWGQGTTVTVSS
VL: DIQMTQSPSSVSASVGDRVTITCRASQGISSWLAWYQQKPGKAPKLLIYTTSSLQSGVPSRFSGSGSGTDFTLTISSLQPEDFATYYCQQANSFPLTFGGGTKVDIK
notes: human IgG4 Fc (H4H)
[1]
  IC50 (SRE-luc, HEK293/hGFRα3/hRET cells, 100 pM hARTEMIN-mmH): 4.9 nM
[2]
  Kd: 7.86 nM
  koff: 0.00135 s⁻¹
  kon: 172000 M⁻¹ s⁻¹
  t1/2: 0.15 h
[3]
  Kd: 2.26 nM
  koff: 0.000315 s⁻¹
  kon: 140000 M⁻¹ s⁻¹
  t1/2: 0.617 h
[4]
  binding response of second antibody (nm): 2.38 nm
[5]
  binding response of second antibody (nm): 0.03 nm
